Test: yeast display, Sf9 membrane polyspecificity reagent, FACS + sequencing; frameworks hold sequencing errors
Outline: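 A synthetic nanobody library was expressed on Saccharomyces cerevisiae BJ5465 by galactose induction for 36–48 hours. The library was stained for 1 hour at 4 °C with 10% biotinylated, detergent-solubilized Sf9 membrane reagent and enriched with streptavidin microbeads before FACS. Low and high (top ~1%) gates were set on anti-HA fluorescence for expression and streptavidin fluorescence for reagent binding, and each polyreactivity label reflects the gate of origin.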

Row | Sequence | polyreactivity (PSR sort gate)
1 | QVQLVESGGGLVQAGGSLRLSCEASGSTFYRYAMGWYRQAPGKERELVDAISSSGGSTYYADSVKGRFTISRDNAKNTVYLQMNSLKPEDTAVYYCNASYRVRRFDYWGQGTQVTVSS | low polyreactivity
2 | QVQLVESGGGLVQAGGSLRLSCAASGSIFRFNAMGWYRPAPGKERELVAAISDSGGRTYYADSVKGRFTISRDNAKNTVYLQMNSLKPEDTAVYYCNAYVHTQGGDYWGQGTQVTVSS | high polyreactivity
3 | QVQLVESGGGLVQAGGSLRLICAASGSILYRYAMGWYRQAPGKERELVASISWSDGSTYYADSVKGRFTISRDNAKNTLYLQMNSLKPEDTAVYYCAAKGWGSDSYYAYGYDYWGQGTQVTVSS | low polyreactivity
4 | QVQLVESGGGLVQAGGSLRLSCAASGRTFARYVMGWYRPAPGKERELVASISNSGGSTYYADSVKGRFTISRDNAKNTVYLQMNSQKPEDTAVSYCARRYYYWGQGTQVTVSS | high polyreactivity
5 | QVQLVESGGGLVQAGGSLRLSCAASGITCSYYTIGWYRQATGKEWELVATISQSSGSTYYADSVKGRFTISRDNAKNTVYLQINTLKPEDTAVYYCKARRDYEWVSWNVVDDYWGQGTQVTVSS | high polyreactivity
6 | QVQLVETGGGLVQAGGSLRLSCAASGLIFVSNAMGWYIQAPGKVRELVAAISKSVGRTYYADSVKGRFTISRDNEKNTVYLQMNSLQPEDTAVYYCAARSRVSPRYDYWGQGTQVTVSS | high polyreactivity
7 | QVQLVESGGGLVQAGGSLRLSCAASGFIFDYYAMGWYRQAPGKERELVAAITSRSGSTYYADSVKGRFTISRDNAKNTVYLQMNSLKPEDTAVYYCARRFKYGSTAWRFYYWGQGTQVTVSS | high polyreactivity
8 | QGQLVESGGGLVQAGGSLRLSCAASGRIFKYNAMGWYRQAPGKEMELVAVITSGGSTYYADSVKGRFTISRDNAKNTVYLQMNSLKPEDTAVYYCAKKYYIVHKFDYWGQGTQVTVSS | low polyreactivity
9 | QVQLVESGGGLVQAGGSLRLSCAASGFPFVYYVMGWYRPAPGKERELVAAINAGGGYTYYADSVKGRFTISRDNAKNTVYVQMNSLKPEDTAVYYCNARVRVRLGRNWSSYYYWGQGTQVTVSS | high polyreactivity
10 | QVQLVESGGGLVQAGGSLRLSCAASGFTFYSYAMGWYRQAPGKERELVAAISRSGTTTYYADSVKGRFTISRDNAKNTVYLQMNSLKPEDTAVYYCAARTTSSSLTPSLYYWGQGTQVTVSS | high polyreactivity
11 | QVQLVESGGGLVQAGGSLRLSCAASGSIFVYNAMGWYRQAPGKEREFVAAITKRVGRTYYADSVKGRFTISRDNAKNTVYLQMNSLKPEDTAVYYCAAVLSYTGGFDYWGQGTQVTVSS | high polyreactivity
12 | QVQLVESGGGLVQAGGSLRLSFAASGSTFHYYAMGWYRQAPGKERELVAAINSGARTYYADSVKGRFTISRDNAKNTVYLQMNSLKPEDTAVYYCAADDSYRSIGGDYWGQGTQVTVSS | low polyreactivity
13 | QVQLVESVGGLVQEGGSLRLRCAASGSTFNKYTMGWYRQAPGKERELVAAISLRGGSTYYADSVKGRFTISRDNAKNTVYLQMNSLKPEDTAVYYCNADATHDWLRVDTYEYWGHGTQVTVSS | low polyreactivity
14 | QVQLVESGGGLVQAGGSLRLSCAASGIIFRRYAMGWYRQAPGKERQLVARISFRGGSTYYADSVKGRFTISRDNAKNTVYLQMNSLKPEDTAVYYCNRDPRYSKEVDGDYWGQGTQVTVSS | high polyreactivity
15 | QVQLVESGGGLVQAGGSLRLSCADSGRIFGYNAMGWYRQAPGKEREFVAAITTSGGSTYYADSVKGRFTISRDNAKKTVFLQMTSLKPEDTAVYYCARDSLHVFYPYASDDYWGQGTQVTVSS | low polyreactivity
16 | QVQLVESGGRLVQAGGSLLLSCDASGSIFRHYAMGWYRQAPWQERELVAAISAIGGSTYADSVKGRFTISRDNAKNTVYLQMNSLIPEDTGVYYCNARSYTSYVYHEAGEFDYWGQGTQVTVSS | low polyreactivity
17 | QVQLVESGGGLVQAGGSLRLSCAASGRTFNKYAMGWYRQAPGKERELVAAINTSGGSTYYADSVKGRFTISRDNAKNTVYLQMNSLKPEDTAVYYCAAQSRSVYGRSYGYWGQGTQVTVSS | high polyreactivity
18 | QVQLVESGGGLVQAGGSLRLSCAASGFTFTDYAMGWYRQAPAKERELVAVITYDSTYYADSVKGRFTISRDNAKNTVYLQMNSLKPEDTAVYYCAADSYDWGDFDYWGQGTEVTVSS | low polyreactivity
19 | HVQLQESGGGLVQAGGSLRLSCAASGSIYQATYMGWYRQAPGKEREFVASITYGSITNYADSVKGRFTIGRDNANDTLYLQMNSLKPEDTAVYYCSVDRHYYWGQGTQVTVST | low polyreactivity
20 | QVQLVESGGGLVQAGGSLRLSCAASGRIFVRNAMGWYRQAPGKEREMVAAISASGGSTYYADSVKGRFTISRDNAKNTVYLLMNSLKPEDTAVYYCNAYRAYYDLAYGYWGQGTQVTVSS | high polyreactivity
21 | QVQLVESGGGLVQAGGSLRLTCAASGGIFVFYAMGWYRQAPGKERELVAAIRYGGSSTYYADSVKGRFTISRDNAKNTVYLQMNSLKPEDTAVYYCAAEPYSWDTWVDYDYWGQGTQVTVSS | low polyreactivity
22 | QVQLVESGGGLFQAGGRLRLSCAPSGSNFVGYVMGWYRQAPGKERELVARIRWGGGRTYYADSVKGRFTISRDNAKNTVYLQMNSLKPEDTAVYFCAAETWWRTRIYDYWGQGTQGTVSS | high polyreactivity

Row | Sequence | polyreactivity (PSR sort gate)
23 | QVQLVESGGGLVQAGGSLRLSCAASGSIFVYNAMGRYRQAPGKERELVAAISRSGASTYYADSVKGRFTISRDNAKNTVYLQMNSLKPEDTAVYYCAAEFRQGGYTFGYWGQGTQVTVSS | high polyreactivity
24 | QVQLVESGGGLVQAGGSLRLSCAASGRIFDGYDMGWYRQAPGKERELVAAITSVGSTNYADSVKGRFTISRDNAKNTVYLQMNSLKPEDSAVYYCAAVLYVFYDEYGYWEYFSQYDYWGQGTQVTVSS | low polyreactivity
25 | QVQLVESGGGLVQAGGSLRLSCAASGIIFDGNVMGWYRQAPGKEREFVASISISGGSTSYADSVKGRFTISRDNAKNTVYLQMNSLKPEDTAVYYCNTDVGYGRVWRWRYHGDYWGQGTQVTVSS | low polyreactivity
26 | QVQLVESGGGLVQAGGSLRFSCAASGRILFSYGAMGLYRQAPGRERELDAATSYSGGSTYYADSVKGRFTISRDKAKKTVYLQMNSLKPEETAVYYCDPSSIVYRHYYWGQGTQVTLSS | high polyreactivity
27 | QVQLVESGGGLVQAGGSLRLICAASGIIFFDYAMGWYRQAPGKEREMVAAISSGGGNTYYADSVKGRFTISRDNAKNTVYLQMNSLKPEDTAVYYCAAEPYIYGEQGAYDYWGQGTQVTVSS | low polyreactivity
28 | QVQLVESGGGLVQAGGSLRLSCAASGLTFSWYAMGWYRQAPGKEREFVATISASGGSTYYADSVKGRFTISRDNAKNTVYLQMNSLKPEDTAVYYCNAIYFRYRNGGYDYWGQGTQVTVSS | high polyreactivity
29 | QVQHVESGGGLVQAGGSLRLSCAASGSTFDRYAMAWYRQAPGKERELVAAISRSTGRTNYADSVKGRFTISRDNAKNTVYLQMNSLIPEDTAVYYCAAYRYLRYDYWGQGTQVTVSS | high polyreactivity
30 | QVQHVESGGGIVQAGGSLRLSCAASGSTFIYNAMGWYRQAPGKERELVAAIDWSGGDTYYADSVKGRFTISRDNAKNTVYLQMNCLKPEDTAVYYCATRWPHYGGYYYWGQGTQVTVSS | high polyreactivity
31 | QVQLVESGGGLVQAGGSLRLSCAASGRTFARNAMGWYRHAPGKERELVAAISGSGGITYYADSVKGRFTISRDNAKNTVYLQMNSLKPEDTAVYYCNAGNNVVVDYDYWGQGTQVTVSS | low polyreactivity
32 | QVQLVESGGGLVQAGGSLRLSCAASGISFEYYAMGWYRQAPGKERELVAAITRGGSTYYADSVKGRFTISRDNAKNTVYLQMNSLKPEDTAVYYCAADRYYYEYDYWGQGTQVTVSS | low polyreactivity
33 | QVQLGESGGGLVQAGGSLRLSCAASGSTFTSYAMGGSRQAPGKERELVAAITHRGSTNYADSVKGRFTISRDNAKYTVDLQMNSLKPEDTAVYYCNARYATSVLYDYWRQGTQVTVSS | high polyreactivity
34 | QVQLVESGGGLVQAGGSLRLSCAASGSIFKGYAMGWYRQAPGKERELVAAISIRGGSTYYADSVKGRFTISRDNAKNTVYLQMNSLKPEDTAVYYCAASSKRKYLYNYWGQGTQVTVSS | high polyreactivity
35 | QVQLVESGGGLVQAGGSLRLSCAASGLIFSRYAMGWYRQAPGKERELVAAITYRTVRTYYADSVKGRFTISRDNAKNTVYLQMNSLKPEDTAVYYCAADSARQRDYWGQGTQVTVSS | high polyreactivity
36 | QVQLVESGGGLVQAGGSLRLTCAASGSIFQPNMGWNRHAPGKERELVASITTGTTKYADSVKGRFTISRDNAKNTVYLQMNSLKPEDTAVYYCAADLQATVYLIFGYWGQGTQVTVSS | low polyreactivity
37 | QVKLVESGGGLVQAGGSLRLSCADSGFTFSSNGMCWYRPAPGKETELVAAITRRGGSTYYADSVKGRFTISRDNAKNTVYLQMNSLKPEDTAVYYCAKQLWDPKYDYWGQGTQVTVSS | high polyreactivity
38 | QDQLVESGGGLVQAGGSLRLSCAASGSTFPRYAMGWSRQAPGKERELVAAISSSGRTYYADSVKGRFTISRDNEKNTVYLQMNSLKPEDTAVYYCNAYPVFRSYDYWGQGTQVTVSS | high polyreactivity
39 | QVQLVESWAGVVQAGGSLRLSCAASGSIFRNAMGWYRQAPGKERELVAGIRWSYGSTNYADSVKGRFTISRDNAKNSVYLQMNSLKPEDTAVYYCAKGAYYARRMYFWGQGTQVTVSS | low polyreactivity
40 | QVQRVESGGGLVQAGGILRLSCAASGSTFKVNVIGWYRHAPRTERDLVSAINQSGGGKYYADSVKGRFTISRDNAKNTVYLQMNSLKPEDTAVYYCAAKIFVLRYVLSQEQRRYNYWGQGTQLTVSS | low polyreactivity
41 | QVQLVESGGGLVQAGGSLRLTCAASGSTLDYYAMGWYRQAPGKERELVAAITQSGASTYYADSVKGRFTISRDNAKNPVYLQMNSLKPEDTAVYYCAAEDYTIYGGEYDYWGQGTQVTVSS | low polyreactivity
42 | QVQLVESGGGLVKAGGSHRLSLASYGTFRYYAMGWYRQAPGKERELDAGISRSGGSTYYEDSVKGRFTISRDNAKNTVYLQMNSQNPEDTEVYDCAAGNYYYWYKTKYYHYDYWGQGTQVTVSS | high polyreactivity
43 | QVQLVESGGGLVQAGGSLRLSCAASGPTFKRYAMGWYRQAPGKERELVAAITGTGAITYYADSVKGRFTISRDNAKNTVYLQMNSLKPEDTAVYYCAALGYYRYKYQASSNGFDYWGQGTQVTVSS | high polyreactivity
